For 79 variants, THAP1 transcriptional activity results are on record in the supplement of paper PMC11811203.

To fix the notation:
B1: THAP1; numbered along this chain (parent)
chain: MVQSCSAYGCKNRYDKDKPVSFHKFPLTRPSLCKEWEAAVRRKNFKPTKYSSICSEHFTPDCFKRECNNKLLKENAVPTIFLCTEPHDKKEDLLEPQEQLPPPPLPPPVSQVDAAIGLLMPPLQTPVNLSVFCDHNYTVEDTMHQRKRIHQLEQQVEKLRKKLKTAQQRCRRQERQLEKLKEVVHFQKEKDDVSERGYVILPNDYFEIVEVPA

In the data set the parent is B1. In words: THAP1 transcriptional activity (GFP+/GFP- enrichment relative to wild-type constructs) (ratio to WT); higher = more THAP1 activity (PSMB5 reporter activation). As to conditions: with PSMB5 promoter-GFP reporter. A digest of the protocol: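 A lentiviral site-saturation library covering residues 2–213 of human THAP1, with each position changed to all 20 amino acids, was transduced in duplicate at MOI ~0.3 into THAP1-knockout HEK-293T cells with mClover3 knocked in at endogenous PSMB5. Five days later, BFP+ cells were sorted into GFP-dim and GFP-bright bins and variants were counted by Illumina sequencing of genomic DNA amplicons. Activity is the bright/dim read fold change averaged over replicates and divided by the mean of wild-type synonymous constructs.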
With P126A, the THAP1 transcriptional activity was found to be 0.618.
For C54Q the value was 0.0652; for L159N, 0.294.
For Y137E the value was 0.152; for Y137F, 0.161; for R172P, 0.241.
Next, N69G: 0.122; N69W: 0.0798.
T142Y: the THAP1 transcriptional activity is 0.248.
For T142V the value was 0.403; for S6V, 0.541; for E207R, 0.5.
Next, K164V: 0.218; T79E: 0.254; A38K: 1.34.
Next, V184K: 0.901; Q124F: 0.463.
On to Q124E, for which the THAP1 transcriptional activity worked out at 0.458.
Next, L123I: 0.913.
For T125H, the THAP1 transcriptional activity came to 0.515.
For T125I the value was 0.437; for K16C, 0.121; for F22M, 0.0987.
In the case of R41P, the THAP1 transcriptional activity amounted to 0.0904.
For E157G the value was 0.865; for L118S, 0.509.
For K11G the value was 0.133; for T84C, 0.907.
As to R13S, the THAP1 transcriptional activity came to 0.133.
Take R13C: the THAP1 transcriptional activity was determined as 0.132.
As for L177C, the THAP1 transcriptional activity turned out to be 0.369.
Turning to S130N, the THAP1 transcriptional activity is 0.651.
Next, M120G: 0.81.
A115K: the THAP1 transcriptional activity was 0.658.
Next, S21L: 0.0984.
Take R42Q: the THAP1 transcriptional activity was found to be 0.202.
With R29W, the THAP1 transcriptional activity stood at 0.129.
In the case of R196Y, the THAP1 transcriptional activity was 1.11.
Next, K43P: 0.957.
For C10R the value was 0.157; for K179W, 0.364.
For D134Q the value was 0.0618; for G9P, 0.116; for N12D, 0.0987.
Turning to V139P, the THAP1 transcriptional activity turned out to be 0.163.
For the variant I116R, the THAP1 transcriptional activity was found to be 0.984.
I116E: the THAP1 transcriptional activity was 0.841.
Take K18V: the THAP1 transcriptional activity was 0.618.
With L201N, the THAP1 transcriptional activity turned out to be 0.624.
Next, L201R: 0.9.
V77H: the THAP1 transcriptional activity is 0.287.
For E91V the value was 0.513; for P86G, 0.464; for P86K, 0.623.
For P60S the value was 0.985; for G197R, 0.711.
For K34M the value was 0.397; for E189D, 1.2; for Q187L, 0.681.
For the variant Q187H, the THAP1 transcriptional activity amounted to 0.853.
For G117E the value was 1.6; for N203Y, 1.02; for V183C, 1.04.
As for F186H, the THAP1 transcriptional activity came out at 1.25.
Next, K90N: 1.49; P107L: 1.74.
As to P106M, the THAP1 transcriptional activity was 1.23.
For N68I the value was 0.15.
Take P47N: the THAP1 transcriptional activity is 0.138.
For P47Y the value was 0.114; for S55C, 0.0655.
Next, E56M: 0.509; E56Y: 0.194; L129M: 0.714.
For L129S, the THAP1 transcriptional activity was determined as 1.2.
As to L71Q, the THAP1 transcriptional activity worked out at 0.432.
As for F81I, the THAP1 transcriptional activity came to 0.536.
Next, S52I: 0.379.
For D92T the value was 0.984.
